Drawing on PMC12859505, this text covers potency (EC50) of CXCL13 (1-100 nM) for G protein activation by FLAG-CXCR5 in WT HEK293 cells: loss of BRET between Gαi1-Rluc8 and Gβ3γ9-GFP2 (TRUEPATH), area under the curve and potency (EC50) of CXCL13 (1-100 nM) for G protein activation by FLAG-CXCR5 in ΔQ-GRK HEK293 cells: loss of BRET between Gαi1-Rluc8 and Gβ3γ9-GFP2 (TRUEPATH), area under the curve for one molecule.

The target in experiment [1] is HA- and RLuc8-tagged CXCR5 (HA-CXCR5-Rluc8), CXCL13-stimulated, in cells that express GRKs (GRK-phosphorylated) (UniProt P32302).
For experiment [2], the target named is HA- and RLuc8-tagged CXCR5 (HA-CXCR5-Rluc8) in ΔQ-GRK HEK293 cells (GRK2/3/5/6 deleted; not phosphorylated by GRKs) (UniProt P32302).

B1: CXCL13 (ligand)
chain: VLEVYYTSLRCRCVQESSVFIPRRFIDRIQILPRGNGCPRKEIIVWKKNKSIVCVDPQAEWIQRMMEVLRKRSSSTLPVPVFKRKIP
With B1, the potency (EC50) of CXCL13 (1-100 nM) for G protein activation by FLAG-CXCR5 in WT HEK293 cells: loss of BRET between Gαi1-Rluc8 and Gβ3γ9-GFP2 (TRUEPATH), area under the curve in experiment [1] was 1 nM. For the same molecule, the potency (EC50) of CXCL13 (1-100 nM) for G protein activation by FLAG-CXCR5 in ΔQ-GRK HEK293 cells: loss of BRET between Gαi1-Rluc8 and Gβ3γ9-GFP2 (TRUEPATH), area under the curve in experiment [2] worked out at 0.85 nM.
